Measured values from patent US7060681B2, “Compositions and methods for use of bioactive agents derived from sulfated and sulfonated amino acids” (Ecole Polytechnique Federale de Lausanne (EPFL), priority 2001, dated 2006).
Ends that are not written are not given here. * marks the point of attachment. SO3 = sulfate on the tyrosine hydroxyl group, O=S(=O)(O)*

What was measured:
VEGF165 = molecular target: T1, VEGF165 (Homo sapiens, UniProt P15692); test: Colorimetric competitive bead assay with biotinylated VEGF165 in presence of heparin; format: binding; conditions: about 0.25 nM biotinylated VEGF165; 1 or 10 equivalents of heparin
T1 construct: made in house; host or cells: E. coli AD494 (DE3)pLysS
T1 sequence (P15692 27-191 isoform P15692-4): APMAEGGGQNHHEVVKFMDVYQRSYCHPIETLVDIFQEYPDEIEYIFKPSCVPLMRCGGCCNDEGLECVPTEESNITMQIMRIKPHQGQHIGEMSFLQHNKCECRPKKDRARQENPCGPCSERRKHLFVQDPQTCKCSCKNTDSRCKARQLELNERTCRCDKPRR
Description: A colorimetric assay was used to screen the library. The assay employed two different precipitating, developing dyes. In this way, beads that bound VEGF165 selectively and through the sulfate functionality could be determined. A portion of the library (2–3 copies) was swelled with H2O and rinsed 3 times with TBS. The resin was subjected overnight to 0.1% albumin and 0.2% Tween in Tris buffered saline (TBS, blocking buffer) and then rinsed with TBS (2×) prior to adding 1 mL streptavidin alkaline phosphatase (diluted 1:1000 from a 1 mg/mL solution) and shaking for 2 hours. The resin was rinsed with TBS (5×) and 200 μL of 5-bromo-4-chloro-3-indoylphosphate p-toluidine salt/nitro blue tetrazolium chloride (BCIP/NBT) reagent was added to develop a blue/black color where the streptavidin alkaline phosphatase was present. Nonspecific adsorption of the streptavidin alkaline phosphatase was detected as blue/black stained beads. After 15 minutes, the resin was rinsed with TBS (5×) prior to adding 100 μL of about 0.25 nM of biotinylated VEGF165 in the presence or absence of 1 or 10 equivalents of heparin sodium salt (isolated from porcine intestinal mucosa) in 400 μL of blocking buffer. The mixture was shaken overnight, the solution removed, the resin washed with TBS (6×), and 1 mL streptavidin alkaline phosphatase (diluted 1:1000 from a 1 mg/mL solution) was added. […]

VEGF = molecular target: T2, VEGF (Homo sapiens, UniProt P15692); test: Dissociation constant (KD) by surface plasma resonance (SPR); format: binding; conditions: ± standard deviation
T2 sequence (P15692 27-191 isoform P15692-4): T1 sequence (P15692 27-191 isoform P15692-4)
Source text: The sequence from the highest ranked bead from the first library of Example 1, was synthesized as SY(SO3)DY(SO3)G (SEE SEQ ID NO: 17), and the peptide Y(SO3)Y(SO3)GGY(SO3)DY(SO3) (SEE SEQ ID NO: 14) from the library of this Example were both synthesized independently and the dissociation constant (KD) determined by surface plasma resonance (SPR). The peptides were compared to suramin, a known heparin mimic that inhibits angiogenesis. […] Using SPR, there was no detectible binding of the analogous desulfated peptides to VEGF.

**Q.** “Y(SO3)Y(SO3)GGY(SO3)DY(SO3) (not fully specified (N-terminus); printed as Y(SO3)Y(SO3)GGY(SO3)DY(SO3))” was tested. Which “Binding of VEGF165 to peptide bead in the presence of heparin (in words)” value (VEGF165) did it give?
**A.** The value was “bound”.

**Q.** `Cc1ccc(C(=O)Nc2ccc(S(=O)(=O)O)c3cc(S(=O)(=O)O)cc(S(=O)(=O)O)c23)cc1NC(=O)c1cccc(NC(=O)Nc2cccc(C(=O)Nc3cc(C(=O)Nc4ccc(S(=O)(=O)O)c5cc(S(=O)(=O)O)cc(S(=O)(=O)O)c45)ccc3C)c2)c1` [Suramin, suramin] was tested. Which Kd (VEGF) did it give?
**A.** Its Kd is 340 µM.
